Data from patent publication US20230021840A1, “USE OF GP73 INHIBITOR IN PREPARATION OF MEDICINE FOR TREATING DIABETES” (BEIJING SUNGEN BIOMEDICAL TECHNOLOGY CO. LTD., priority 2020, published 2023).
Entries after “also recorded” stand apart in the source; their conditions may differ. Blank lines part the entries; values can stand above or below the molecule they belong to.

Key:
[1] = system: mice with type II diabetes; experiment: GP73 siRNA treatment of high-fat-diet-induced mice with type II diabetes; format: in vivo, C57BL/6N mice; details: for HbA1c: serum
Protocol: 2. In the present invention, the detection method of glucose in mice is as follows: all blood samples were collected from the tail, and the blood glucose was tested by a full-automatic glucometer (ACCU-CHEK; Roche) through a glucose oxidase method; normal mice and diabetic mice were fasting for 6 h, and fasting blood glucose was tested; the random blood glucose level was tested at 9:00 am; and when the blood glucose level is greater than 35 mM (the upper limit of glucometer), it was recorded as 35 mM.
3. In the present invention, the detection method of the glycometabolism experiment is as follows: In the glucose, insulin and pyruvate tolerance tests, mice were fasting for 12 h and then injected with D-glucose (Sigma, Art. No.: G8270, 1.5 g/kg body weight), insulin (Sigma, Art. No.: 19278, 0.75 U/kg body weight) or sodium pyruvate (Sigma, Art. No.: P2256, 2 g/kg body weight) at […]; at 0 min, 15 min, 30 min, 45 min, 60 min, 120 min and 24 h after injection, blood was collected from the tail vein of mice, and blood glucose was tested to determine the intraperitoneal glucose tolerance (IPGTT), pyruvate tolerance (PTT) and insulin tolerance (ITT).
Experimental method: On this basis, C57BL/6N mice (male, 8-10 weeks old, 20-22 g) were selected, and after feeding high-fat diet for 20 weeks, the animals were fasting for 6 h, and the fasting blood glucose was tested. […] According to the fasting blood glucose, the mice were randomly divided into the Ctr siRNA group and the GP73 siRNA experimental group, 6 mice per group. The mice were first injected with 4 nM at the tail vein, and then intraperitoneally injected with 4 nM, once every 5 days. The mice were sacrificed 4 weeks after the first injection, and the indicators such as blood glucose and glycated hemoglobin were detected.

endogenous GP73 = experiment: Knockdown of endogenous GP73 in H22 cells (western blotting); format: cell-based; details: H22 mouse liver cells; 24 h after transfection
Protocol: Experimental method: A total of 9 RNAi oligos (Table 7, SEQ ID NOs. 1-9) targeting different sites of mouse GP73 were firstly synthesized, and H22 mouse liver cells were transfected and collected for the western blotting experiments 24 h after transfection.

glucagon [2] = molecular target: glucagon (UniProt P01275); experiment: SPR, Reichert 4SPR
glucagon [3] = molecular target: glucagon (UniProt P01275); experiment: microscale thermophoresis (MST), His-tagged GP73 labelled with RED-tris-NTA, GCG titrated
glucagon [4] = molecular target: glucagon (UniProt P01275); experiment: OpenSPR, GP73 coupled to amine sensor chip, glucagon in mobile phase
GCG [5] = molecular target: T1, GCG (Homo sapiens, UniProt P01275); experiment: Affinity of recombinant soluble GP73 and GCG by Reichert 4SPR; format: binding
T1 construct: purchased MCE HY-P0082

GCG [6] = molecular target: T1, GCG; experiment: Affinity of recombinant soluble GP73 and GCG by microscale thermophoresis (MST); format: binding
GCG [7] = molecular target: T1, GCG; experiment: Affinity of recombinant soluble GP73 and GCG by OpenSPR; format: binding
PKA = PKA phosphorylation and kinase activity in HepG2 cells (western blotting); format: cell-based; details: versus PBS control

Sequence of glucagon (P01275 53-81 limits assumed): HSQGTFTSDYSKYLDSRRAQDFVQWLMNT

Molecule: Ctr siRNA: RNAi oligos with disrupted sequences used as control, AUCACACCAACACAGGUCCTT (chemistry not given here)
ALT ([1]; 4 weeks after treatment): 77 ± 22 | AST ([1]; 4 weeks after treatment): 243 ± 65 | CHO ([1]; 4 weeks after treatment): 5.62 ± 0.97 | TG ([1]; 4 weeks after treatment): 1.27 ± 0.37 | HbA1c ([1]; 4 weeks after treatment): 4.39±0.67% | HbA1c ([1]; 4 weeks after treatment, listed as Ctrl siRNA): 4.39 ± 0.67% | Fasting blood glucose ([1]; Week 0): 12.0 ± 1.7 mM | Fasting blood glucose ([1]; Week 4, injection once every 5 days): 12.2 ± 3.0 mM

Molecule: No. 4: GP73 siRNA 995-CCAACAGGCAUCCAUCCAATT (unmodified) (2'-OMe throughout, phosphorothioates at both ends, 3'-cholesterol, counts not given here)
Knockdown efficiency of endogenous GP73 (endogenous GP73): good knockdown efficiency

Kd (glucagon [2]): 0.35 µM | Kd (glucagon [3]): 0.12 µM
Molecule: recombinant monkey soluble GP73

Kd (glucagon [2]): 1.55 µM | Kd (glucagon [4]): 3.21 µM | Kd (glucagon [3]): 0.41 µM
Molecule: recombinant mouse soluble GP73

Kd (glucagon [2]): 0.73 µM | Kd (glucagon [4]): 3.19 µM | Kd (glucagon [3]): 0.58 µM
Molecule: recombinant rat soluble GP73

Kd (GCG [5]): 2.83 µM | Kd (GCG [6]): 2.45 µM | Kd (GCG [7]): 2.8 µM
B1: rhsGP73: recombinant human soluble GP73, NCBI Reference Sequence NP_057632.2 (protein)
chain: AAAERGAVELKKNEFQGELEKQREQLDKIQSSHNFQLESVNKLYQDEKAVLVNNITTGERLIRVLQDQLKTLQRNYGRLQQDVLQFQKNQTNLERKFSYDLSQCINQMKEVKEQCEERIEEVTKKGNEAVASRDLSENNDQRQQLQALSEPQPRLQAAGLPHTEVPQGKGNVLGNSKSQTPAPSSEVVLDSKRQVEKEETNEIQVVNEEPQRDRLPQEPGREQVVEDRPVGGRGFGGAGELGQTPQVQAALSVSQENPEMEGPERDQLVIPDGQEEEQEAAGEGRNQQKLRGEDDYNMDENEAESETDKQAALAGNDRNIDVFNVEDQKRDTINLLDQREKRNHTL
PKA phosphorylation level (PKA-p) and kinase activity (RRXρS/T) (PKA): significantly up-regulated; also recorded: promotes the phosphorylation level (PKA-p) and kinase activity
